The results in this text go back to FireProtDB (doi:10.1016/j.jmb.2004.06.010).

B1: Alpha-lactalbumin, P00712 (parent)
chain: MMSFVSLLLVGILFHATQAEQLTKCEVFQKLKDLKDYGGVSLPEWVCTAFHTSGYDTQAIVQNNDSTEYGLFQINNKIWCKDDQNPHSRNICNISCDKFLDDDLTDDIVCAKKILDKVGINYWLAHKALCSEKLDQWLCEKL

“And” between values parts separate entries of the source, which are not always exact repeats. Equal values may be shown once.

The variants in the data set derive from B1. The note with it: Capra hircus, pH 7, 25 °C, GdnHCl, CD, sodium cacodylate 50 mM, NaCl 50 mM, structure 1HFY, whole UniProt chain shown.

As to L31A, the denaturant m value came out at 2.6 kcal/mol/M, the “denaturant midpoint (higher = more stable)” value (from here on “denaturant midpoint”) worked out at 1.21 M and the unfolding free energy is 3.17 kcal/mol. In addition, the “denaturant midpoint” value (transition: 3) was 1.37 M and 0.62 M.

Take D106N: the denaturant m value was 2.18 kcal/mol/M, the “denaturant midpoint” value turned out to be 2.07 M and the unfolding free energy worked out at 4.51 kcal/mol. Further, for the setting “transition: 3”, the denaturant m value was found to be 0.72 kcal/mol/M, the “denaturant midpoint” value stood at 1.49 M and the unfolding free energy is 1.08 kcal/mol.

V27A: the denaturant m value is 2.1 kcal/mol/M, the “denaturant midpoint” value amounted to 2.26 M and the unfolding free energy amounted to 4.74 kcal/mol. Also, where the note is “transition: 3”, the denaturant m value came to 1.48 kcal/mol/M, the “denaturant midpoint” value came to 2.76 M and the unfolding free energy is 4.1 kcal/mol.

I74V: under “transition: 3”, the denaturant m value is 0.62 kcal/mol/M and 0.75 kcal/mol/M; the “denaturant midpoint” value was 2.38 M and 1.04 M; the unfolding free energy is 1.48 kcal/mol and 0.78 kcal/mol.

In the case of L129A, the denaturant m value is 2.29 kcal/mol/M, the “denaturant midpoint” value came to 2.38 M and the unfolding free energy was found to be 5.45 kcal/mol. In addition, the denaturant m value (transition: 3) was 1.69 kcal/mol/M and 0.6 kcal/mol/M.

L115A: the denaturant m value came to 1.72 kcal/mol/M, the “denaturant midpoint” value stood at 2 M and the unfolding free energy was determined as 3.44 kcal/mol. Further, the denaturant m value (transition: 3) is 1.09 kcal/mol/M and 0.63 kcal/mol/M.

Consider L71A, for which the denaturant m value was determined as 2.03 kcal/mol/M, the “denaturant midpoint” value amounted to 1.15 M and the unfolding free energy came out at 2.34 kcal/mol. For the setting “transition: 3”, the denaturant m value is 1.52 kcal/mol/M and 0.51 kcal/mol/M; the “denaturant midpoint” value was 1.16 M and 1.13 M.

On to K112A, for which the denaturant m value came to 2.12 kcal/mol/M, the “denaturant midpoint” value was 1.83 M and the unfolding free energy was found to be 3.88 kcal/mol. Further, under “transition: 3”, the denaturant m value was 1.51 kcal/mol/M and 0.61 kcal/mol/M; the “denaturant midpoint” value is 2.07 M and 1.24 M.

On to I114V, for which the denaturant m value was determined as 1.92 kcal/mol/M, the “denaturant midpoint” value was found to be 1.92 M and the unfolding free energy is 3.69 kcal/mol. In addition, where the note is “transition: 3”, the denaturant m value is 1.21 kcal/mol/M and 0.71 kcal/mol/M; the “denaturant midpoint” value was 2.46 M and 1 M.

For the variant V109A, the denaturant m value worked out at 2.22 kcal/mol/M, the “denaturant midpoint” value stood at 2.99 M and the unfolding free energy was determined as 6.63 kcal/mol. Further, under “transition: 3”, the denaturant m value is 1.64 kcal/mol/M and 0.58 kcal/mol/M; the “denaturant midpoint” value was 3.5 M and 1.54 M.

V46A: the denaturant m value is 2.7 kcal/mol/M, the “denaturant midpoint” value was 1.81 M and the unfolding free energy turned out to be 4.88 kcal/mol. Besides, for the setting “transition: 3”, the denaturant m value is 1.9 kcal/mol/M and 0.8 kcal/mol/M; the “denaturant midpoint” value is 2.17 M and 0.94 M.

With I108V, the denaturant m value was found to be 1.95 kcal/mol/M, the “denaturant midpoint” value was 2.33 M and the unfolding free energy came out at 4.54 kcal/mol. Where the note is “transition: 3”, the denaturant m value was 1.3 kcal/mol/M and 0.65 kcal/mol/M; the “denaturant midpoint” value was 2.95 M and 1.09 M.

For the variant Y122F, the denaturant m value was 1.82 kcal/mol/M, the “denaturant midpoint” value came out at 1.76 M and the unfolding free energy was 3.2 kcal/mol. Where the note is “transition: 3”, the denaturant m value was 1.3 kcal/mol/M and 0.52 kcal/mol/M; the “denaturant midpoint” value is 1.64 M and 2.07 M; the unfolding free energy was 2.13 kcal/mol and 1.08 kcal/mol.

As for L124A, for the setting “transition: 3”, the denaturant m value is 2 kcal/mol/M and 0.74 kcal/mol/M; the “denaturant midpoint” value is 2.55 M and 1.22 M.

For W137F, the denaturant m value worked out at 2.12 kcal/mol/M, the “denaturant midpoint” value came out at 2.49 M and the unfolding free energy came to 5.27 kcal/mol.

Consider W79A, for which the denaturant m value turned out to be 2.4 kcal/mol/M, the “denaturant midpoint” value worked out at 1.59 M and the unfolding free energy was found to be 3.82 kcal/mol. Under “transition: 3”, the denaturant m value is 1.79 kcal/mol/M and 0.61 kcal/mol/M; the “denaturant midpoint” value is 1.58 M and 1.65 M; the unfolding free energy was 2.82 kcal/mol and 1 kcal/mol.
